# B1: Hemicentrotus pulcherrimus FGE fusion protein (Lip2pre-HpFGE-6HIS-HDEL) (enzyme)
# chain: ENEDINQNISPTQSHTTATTEEELAEARGEEIDSDPTSEGSGAGEGCGCGSSALNRNHDEDALGLALEENLHDHVQEGAALKYSREANDPISMDHPEANVGAFPRTNQMNFIEGGTFRMGTDKAKIYLDGESPSRLVTLDPYYFDVYEVSNSEFELFVNTTSYITEAEKFGDSFVLEARISEEVKKDISQVVAAAPWWLPVKGAEWRHPEGPDSSISSRMDHPVTHISWNDATAYCQWAGKRLPTEAEWENAARGGLNNRLFPWGNKLMPKDHHRVNIWQGEFPKVNTAEDGYEGTCPVTAFEPNGYGLYNTVGNAWEWVADWWTTVHSPESQNNPVGPDEGTDKVKKGGSYMCHISYCYRYRCEARSQNSPDSSACNLGFRCAATNLPEDIPCSNCNDSTPHHHHHHHDEL
# B2: Monodelphis domestica Lip2-MdFGE-His6-HDEL fusion construct (enzyme)
# chain: AARGLGSEAGSAAADAAHPAGTCGCGSPQRPGTAAHRYSREANVAEPASAERPVLTSQMAHIPAGVFTMGTDEPQIKQDGEGPARRVRINSFYMDLYEVSNAEFERFVNSTGYVTEAEKFGDSFVFDSMLSDQVKSDIHQAVAAAPWWLPVKGANWRHPEGPDSSILHRRDHPVLHVSWNDAVAYCTWAGKRLPTEAEWEYSCRGGLENRLFPWGNKLQPKGQHYANIWQGEFPVSNTGEDGYQGTAPVTAFPPNGYGLYNIVGNAWEWTSDWWTVHHSADETLDPKGPPSGSDRVKKGGSYMCHKSYCYRYRCAARSQNTPDSSASNLGFRCAADRLPDTHHHHHHHDEL
# B3: Columba livia Lip2-C1FGE-His6-HDEL fusion construct (enzyme)
# chain: MVVIPGGVFTMGTDEPAIQQDGEWPVRKVHVNSFYMDRYEVSNEDFERFVNSTGYVTEAEKFGDSFVFEGMLSEEVKAEIHQAVAAAPWWLPVKGANWKHPEGPDSNISNRMDHPVLHVSWNDAVAFCTWAGKRLPTEAEWEYSCRGGLENRLFPWGNKLQPKGQHYANIWQGVFPTNNTAEDGYKGTAPVTAFPPNGYGLYNIVGNAWEWTADWWAVHHSTEEVHNPKGPSSGTDRVKKGGSYMCHKSYCYRYRCAARSQNTPDSSASNLGFRCAADASPELPHHHHHHHDEL
# B4: Gallus gallus Lip2-GgFGE-His6-HDEL fusion construct (enzyme)
# chain: GKETAPGGNCGCSASRSRGGEREAVATVRRYSAAANDGRSSGRGPMVAIPGGVFTMGTDEPEIQQDGEWPARRVHVNSFYMDQYEVSNQEFERFVNSTGYLTEAEKFGDSFVFEGMLSEEVKAEIHQAVAAAPWWLPVKGANWRQPEGPGSSILSRMDHPVLHVSWNDAVAFCTWAGKRLPTEAEWEYGCRGGLEKRLFPWGNKLQPKGQHYANIWQGVFPTNNTAEDGYKGTAPVTAFPPNGYGLYNIVGNAWEWTSDWWAVHHSADEAHNPKGPSSGTDRVKKGGSYMCHKSYCYRYRCAARSQNTPDSSASNLGFRCAADALPDPQHHHHHHHDEL
# Biological target: recombinant human iduronate-2 sulfatase (rhIDS) (human) (UniProt P22304)
# Sequence (P22304 26-550 limits assumed): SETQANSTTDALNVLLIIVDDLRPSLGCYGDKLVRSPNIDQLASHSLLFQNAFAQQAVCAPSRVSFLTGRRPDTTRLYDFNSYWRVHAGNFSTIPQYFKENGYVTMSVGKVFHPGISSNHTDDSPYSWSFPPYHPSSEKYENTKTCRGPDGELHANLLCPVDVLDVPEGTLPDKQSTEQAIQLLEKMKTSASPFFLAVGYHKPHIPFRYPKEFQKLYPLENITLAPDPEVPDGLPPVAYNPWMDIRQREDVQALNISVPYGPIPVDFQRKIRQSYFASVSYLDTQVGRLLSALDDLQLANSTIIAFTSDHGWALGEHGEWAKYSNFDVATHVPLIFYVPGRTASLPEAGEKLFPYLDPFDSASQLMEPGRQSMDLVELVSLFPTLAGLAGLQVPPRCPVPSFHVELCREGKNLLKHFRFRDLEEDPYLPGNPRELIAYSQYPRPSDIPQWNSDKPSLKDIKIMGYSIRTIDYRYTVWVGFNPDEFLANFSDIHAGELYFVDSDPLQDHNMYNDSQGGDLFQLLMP
# Assay: cell-based or functional assay
binder,measurement,value
B1,"% FGly (LC-MS, cation exchange purified); OXYY1801 (20° C.), 1c rhIDS, 2c HpFGE",100%
same,"% FGly (LC-MS, cation exchange purified); OXYY1801 (24° C.), 1c rhIDS, 2c HpFGE",100%
same,"% FGly (LC-MS, cation exchange purified); OXYY1801 (26° C.), 1c rhIDS, 2c HpFGE",70.4%
B2,% FGly (LC-MS); co-expression with MdFGE,100%
B3,% FGly (LC-MS); co-expression with ClFGE,100%
B4,% FGly (LC-MS); co-expression with GgFGE,78%
